Data on 4 molecules can be found in patent US20160298109A1.

Experiment [1] deals with gp120 of HIV-1 BaL (HIV-1 BaL). The experiment can be described thus: cell-based or functional assay.
A further experiment addresses GP120 (HIV-1 JRFL). The experiment can be described thus: SPR. To be noted: chains peptide; modification not given.
Experiment [2] concerns the target HIV-1 JRFL gp120 protein (HIV-1 JRFL). The experiment can be described thus: peptide blocking ELISA: coated gp120 pre-incubated with GP3 (125 ng), then recombinant CCR5-GST, anti-GST HRP; competitor CCR5.

Where only a bound is given, the exact number is not on record here.

Turning to SYSFCPRRQGGGGGGSGGSGK (modifications not checked) [GP3], in experiment [1], the inhibition of HIV-1 BaL infection (p24+ CD4 T cells), peptide without streptavidin, 100 µM worked out at 34.5% and the inhibition of HIV-1 BaL infection (p24+ CD4 T cells), peptide without streptavidin, 250 µM turned out to be 54.7%. Also, the Kd with GP120 (HIV-1 JRFL) is 39.1 µM. The reduction in absorbance (CCR5 binding to gp120) in experiment [2] came to 65.8%.
In turn, LLALSAYMVGGGGGGSGGSGK [GP11] returned a Kd with GP120 (HIV-1 JRFL) of 48.3 µM.
For the molecule LWCRRLNLLGGGGGGSGGSGK [GP16], in experiment [1], the inhibition of HIV-1 BaL infection (p24+ CD4 T cells), peptide without streptavidin, 50 µM was less than 1%; the inhibition of HIV-1 BaL infection (p24+ CD4 T cells), peptide without streptavidin, 100 µM was less than 1%; the inhibition of HIV-1 BaL infection (p24+ CD4 T cells), peptide without streptavidin, 250 µM turned out to be 50%; the viral inhibition, peptide conjugated with streptavidin, 50 µM was 62.6%. The Kd with GP120 (HIV-1 JRFL) came out at 42.7 µM.
RRRNVPLILGGGGGGSGGSGK [GP2] gave a Kd in the experiment with GP120 (HIV-1 JRFL) of 76.1 µM. That is a double-digit micromolar value.
